Sequences and labels used below:
B1: Nucleolar transcription factor 1, residues 408 to 469; numbered along this chain, P17480 (parent)
chain: KRPVSAMFIFSEEKRRQLQEERPELSESELTRLLARMWNDLSEKKKAKYKAREAALKAQSER

Data on 43 variants can be found in the Human Domainome abundance scans (Beltran et al. 2025).

± gives the uncertainty stated by the source.

Variants of B1 are the subject of this series. Briefly: abundance fitness (aPCA) (normalised: wild type 0, dead -1); higher = more abundant; growth selection in yeast, the domain comes from the species named. The following applies: Homo sapiens.
For KRPVSAMFIFSEEKRRQLQEERPELSESELTRLLARMWNDLSEKKKAKYKAREATLKAQSER, the abundance fitness is -0.062 ± 0.063. KRPVSAMFIFSEEKRRQLQEERPELSESELTRLLARMWNDLSEKKKAKYKAREAKLKAQSER: the abundance fitness is -0.054 ± 0.087.

Consider KRPVSAMFIFSEEKRRQLQEERPELSESELTRLLARMWNDLSEKKKAKYKAREARLKAQSER, for which the abundance fitness was -0.058 ± 0.061. Next, KRPVSAMFIFSEEKRRQLQEERPELSESELTRLLARMWNDLSEKKKAKYKAREAGLKAQSER: -0.046 ± 0.072; KRPVSAMFIFSEEKRRQLQEERPELSESELTRLLARMWNDLSEKKKAKYKAREASLKAQSER: -0.065 ± 0.056.

Take KRPVSAMFIFSEEKRRQLQEERPELSESELTRLLARMWNDLSEKKKAKYKAREAYLKAQSER: the abundance fitness is -0.149 ± 0.14.

In the case of KRPVSAMFIFSEEKRRQLQEERPELSESELTRLLARMWNDLSEKKKAKYKAREAVLKAQSER, the abundance fitness is -0.025 ± 0.072. As for KRPVSAMFIFSEEKRRQLQEERPELSESELTRLLARMWNDLSEKKKAKYKAREANLKAQSER, the abundance fitness is -0.141 ± 0.18. Turning to KRPVSAMFIFSEEKRRQLQEERPELSESELTRLLARMWNDLSEKKKAKYKAREAALIAQSER, the abundance fitness is -0.045 ± 0.069. KRPVSAMFIFSEEKRRQLQEERPELSESELTRLLARMWNDLSEKKKAKYKAREAALHAQSER: the abundance fitness is -0.044 ± 0.098. Next, KRPVSAMFIFSEEKRRQLQEERPELSESELTRLLARMWNDLSEKKKAKYKAREAALRAQSER: -0.079 ± 0.049; KRPVSAMFIFSEEKRRQLQEERPELSESELTRLLARMWNDLSEKKKAKYKAREAALPAQSER: -0.087 ± 0.061. Consider KRPVSAMFIFSEEKRRQLQEERPELSESELTRLLARMWNDLSEKKKAKYKAREAALAAQSER, for which the abundance fitness is -0.069 ± 0.049.

Regarding KRPVSAMFIFSEEKRRQLQEERPELSESELTRLLARMWNDLSEKKKAKYKAREAALDAQSER, the abundance fitness is -0.096 ± 0.058.

KRPVSAMFIFSEEKRRQLQEERPELSESELTRLLARMWNDLSEKKKAKYKAREAALVAQSER: the abundance fitness was -0.085 ± 0.042. With KRPVSAMFIFSEEKRRQLQEERPELSESELTRLLARMWNDLSEKKKAKYKAREAALSAQSER, the abundance fitness is -0.005 ± 0.05.

For the variant KRPVSAMFIFSEEKRRQLQEERPELSESELTRLLARMWNDLSEKKKAKYKAREAALLAQSER, the abundance fitness is -0.07 ± 0.044. With KRPVSAMFIFSEEKRRQLQEERPELSESELTRLLARMWNDLSEKKKAKYKAREAALNAQSER, the abundance fitness was -0.068 ± 0.11. The value for KRPVSAMFIFSEEKRRQLQEERPELSESELTRLLARMWNDLSEKKKAKYKAREAALEAQSER was 0.017 ± 0.074; that for KRPVSAMFIFSEEKRRQLQEERPELSESELTRLLARMWNDLSEKKKAKYKAREAALGAQSER was -0.073 ± 0.052; that for KRPVSAMFIFSEEKRRQLQEERPELSESELTRLLARMWNDLSEKKKAKYKAREAALTAQSER was -0.059 ± 0.054.

As to KRPVSAMFIFSEEKRRQLQEERPELSESELTRLLARMWNDLSEKKKAKYKAREAALWAQSER, the abundance fitness is -0.146 ± 0.059. For the variant KRPVSAMFIFSEEKRRQLQEERPELSESELTRLLARMWNDLSEKKKAKYKAREAALYAQSER, the abundance fitness is -0.162 ± 0.12. Consider KRPVSAMFIFSEEKRRQLQEERPELSESELTRLLARMWNDLSEKKKAKYKAREAALFAQSER, for which the abundance fitness was -0.058 ± 0.081. Consider KRPVSAMFIFSEEKRRQLQEERPELSESELTRLLARMWNDLSEKKKAKYKAREAALCAQSER, for which the abundance fitness was -0.048 ± 0.11. Regarding KRPVSAMFIFSEEKRRQLQEERPELSESELTRLLARMWNDLSEKKKAKYKAREAALQAQSER, the abundance fitness is -0.16 ± 0.1. As to KRPVSAMFIFSEEKRRQLQEERPELSESELTRLLARMWNDLSEKKKAKYKAREAALKVQSER, the abundance fitness was -0.017 ± 0.053. Next, KRPVSAMFIFSEEKRRQLQEERPELSESELTRLLARMWNDLSEKKKAKYKAREAALKPQSER: -0.084 ± 0.061. On to KRPVSAMFIFSEEKRRQLQEERPELSESELTRLLARMWNDLSEKKKAKYKAREAALKEQSER, for which the abundance fitness was -0.069 ± 0.068. With KRPVSAMFIFSEEKRRQLQEERPELSESELTRLLARMWNDLSEKKKAKYKAREAALKHQSER, the abundance fitness is 0.029 ± 0.098.

Consider KRPVSAMFIFSEEKRRQLQEERPELSESELTRLLARMWNDLSEKKKAKYKAREAALKQQSER, for which the abundance fitness is -0.002 ± 0.065. On to KRPVSAMFIFSEEKRRQLQEERPELSESELTRLLARMWNDLSEKKKAKYKAREAALKWQSER, for which the abundance fitness was -0.097 ± 0.067. For the variant KRPVSAMFIFSEEKRRQLQEERPELSESELTRLLARMWNDLSEKKKAKYKAREAALKDQSER, the abundance fitness came out at 0.006 ± 0.1. For KRPVSAMFIFSEEKRRQLQEERPELSESELTRLLARMWNDLSEKKKAKYKAREAALKKQSER, the abundance fitness is -0.042 ± 0.05.

Turning to KRPVSAMFIFSEEKRRQLQEERPELSESELTRLLARMWNDLSEKKKAKYKAREAALKNQSER, the abundance fitness was determined as 0.013 ± 0.059. KRPVSAMFIFSEEKRRQLQEERPELSESELTRLLARMWNDLSEKKKAKYKAREAALKLQSER: the abundance fitness was -0.025 ± 0.039.

With KRPVSAMFIFSEEKRRQLQEERPELSESELTRLLARMWNDLSEKKKAKYKAREAALKRQSER, the abundance fitness was -0.041 ± 0.045.

Consider KRPVSAMFIFSEEKRRQLQEERPELSESELTRLLARMWNDLSEKKKAKYKAREAALKYQSER, for which the abundance fitness is -0.173 ± 0.13.

For KRPVSAMFIFSEEKRRQLQEERPELSESELTRLLARMWNDLSEKKKAKYKAREAALKIQSER, the abundance fitness was found to be 0.022 ± 0.12. For KRPVSAMFIFSEEKRRQLQEERPELSESELTRLLARMWNDLSEKKKAKYKAREAALKCQSER, the abundance fitness is -0.067 ± 0.072.

KRPVSAMFIFSEEKRRQLQEERPELSESELTRLLARMWNDLSEKKKAKYKAREAALKFQSER: the abundance fitness was -0.03 ± 0.065. As for KRPVSAMFIFSEEKRRQLQEERPELSESELTRLLARMWNDLSEKKKAKYKAREAALKSQSER, the abundance fitness is -0.051 ± 0.048.

On to KRPVSAMFIFSEEKRRQLQEERPELSESELTRLLARMWNDLSEKKKAKYKAREAALKGQSER, for which the abundance fitness is 0.001 ± 0.056.
